B1: Human lactoferrin (hLF): Human-derived lactoferrin purchased from FUJIFILM Wako (protein, UniProt P02788 20-710, looked up)
Lactotransferrin: GRRRSVQWCAVSQPEATKCFQWQRNMRKVRGPPVSCIKRDSPIQCIQAIAENRADAVTLDGGFIYEAGLAPYKLRPVAAEVYGTERQPRTHYYAVAVVKKGGSFQLNELQGLKSCHTGLRRTAGWNVPIGTLRPFLNWTGPPEPIEAAVARFFSASCVPGADKGQFPNLCRLCAGTGENKCAFSSQEPYFSYSGAFKCLRDGAGDVAFIRESTVFEDLSDEAERDEYELLCPDNTRKPVDKFKDCHLARVPSHAVVARSVNGKEDAIWNLLRQAQEKFGKDKSPKFQLFGSPSGQKDLLFKDSAIGFSRVPPRIDSGLYLGSGYFTAIQNLRKSEEEVAARRARVVWCAVGEQELRKCNQWSGLSEGSVTCSSASTTEDCIALVLKGEADAMSLDGGYVYTAGKCGLVPVLAENYKSQQSSDPDPNCVDRPVEGYLAVAVVRRSDTSLTWNSVKGKKSCHTAVDRTAGWNIPMGLLFNQTGSCKFDEYFSQSCAPGSDPRSNLCALCIGDEQGENKCVPNSNERYYGYTGAFRCLAENAGDVAFVKDVTVLQNTDGNNNEAWAKDLKLADFALLCLDGKRKPVTEARSCHLAMAPNHAVVSRMDKVERLKQVLLHQQAKFGRNGSDCPDKFCLFQSETKNLLFNDNTECLARLHGKTTYEKYLGPQYVAGITNLKKCSTSPLLEACEFLRK
B2: Bovine lactoferrin (bLF): Bovine-derived lactoferrin purchased from FUJIFILM Wako (protein, UniProt P24627 20-708, looked up)
Lactotransferrin: APRKNVRWCTISQPEWFKCRRWQWRMKKLGAPSITCVRRAFALECIRAIAEKKADAVTLDGGMVFEAGRDPYKLRPVAAEIYGTKESPQTHYYAVAVVKKGSNFQLDQLQGRKSCHTGLGRSAGWIIPMGILRPYLSWTESLEPLQGAVAKFFSASCVPCIDRQAYPNLCQLCKGEGENQCACSSREPYFGYSGAFKCLQDGAGDVAFVKETTVFENLPEKADRDQYELLCLNNSRAPVDAFKECHLAQVPSHAVVARSVDGKEDLIWKLLSKAQEKFGKNKSRSFQLFGSPPGQRDLLFKDSALGFLRIPSKVDSALYLGSRYLTTLKNLRETAEEVKARYTRVVWCAVGPEEQKKCQQWSQQSGQNVTCATASTTDDCIVLVLKGEADALNLDGGYIYTAGKCGLVPVLAENRKSSKHSSLDCVLRPTEGYLAVAVVKKANEGLTWNSLKDKKSCHTAVDRTAGWNIPMGLIVNQTGSCAFDEFFSQSCAPGADPKSRLCALCAGDDQGLDKCVPNSKEKYYGYTGAFRCLAEDVGDVAFVKNDTVWENTNGESTADWAKNLNREDFRLLCLDGTRKPVTEAQSCHLAVAPNHAVVSRSDRAAHVKQVLLHQQALFGKNGKNCPDKFCLFKSETKNLLFNDNTECLAKLGGRPTYEEYLGTEYVTAIANLKKCSTSPLLEACAFLTR
B3: Holo-bLF: Iron-saturated (holo) bLF, iron saturation 95.5% (protein, UniProt P24627 20-708, looked up)
Lactotransferrin: B2 Lactotransferrin
modifications: iron-saturated (holo)
B4: Apo-bLF: Iron-depleted (apo) bLF, iron saturation 0.35% (protein, UniProt P24627 20-708, looked up)
Lactotransferrin: B2 Lactotransferrin
modifications: iron-depleted (apo)

How the values were obtained:
[1] = tested on: Streptomyces scabiei S58; experiment: microbe, parasite or virus in culture; format: cell-based; conditions: TSB, 28 °C, 72 h, absorbance 600 nm; for IC50: S. scabiei S58 spores 2 × 10^5/mL, probit analysis, mean ± SD, n = 3, read-out: Antimicrobial activity (IC50)
Protocol: S. scabiei S58, isolated from potatoes grown in Kagoshima, Japan, was used in this study. […] For antimicrobial assays, the spores of the isolate were incubated at 28 °C in tryptic soy broth (TSB) (Becton Dickinson, Sparks, USA). Escherichia coli strains JM109 and BL21(λDE3) were grown at 37 °C in Luria-Bertani broth supplemented with 100 μg/mL ampicillin for propagation.
(§1) A 12-well plate was used to assess the antimicrobial activity of LF, hydrolysate, LFcinB, and synthetic peptides. One milliliter of TSB containing each test substance was added to each well and then the spores of S. scabiei S58, prepared as described above, were added into each well at a final concentration of 2 × 10^5 spores/mL. The mixture was incubated at 28 °C for 72 h, and the absorbance was measured at 600 nm to monitor bacterial growth. To further confirm whether the antimicrobial activity is due to growth inhibition or bactericidal effect, 1 mL of TSB containing 2 ×10^3 spores and bLF (1 mg/mL) was incubated at 28 °C and directly cultured on STA after 5, 10, 15, 24, 48, and 72 h of incubation to count the emerging colonies. All assays were performed in duplicate and were repeated three times.

[2] = tested on: Streptomyces scabiei S58; experiment: Bactericidal effect assay: colony counting on starch agar after treatment; format: cell-based; conditions: bLF 1 mg/mL, 2 × 10^3 spores in 1 mL TSB, 28 °C
Protocol: as §1
Fig 3 Bactericidal effect of bovine-derived lactoferrin (bLF) (A) and minimal inhibitory concentration (MIC) of bLF (B) on Streptomyces scabiei S58. For the assay of bactericidal effect, the mixture of bLF and spores (2 × 10^3/mL) was incubated at 28 °C and directly cultured on starch agar in a time-dependent manner. The number of colonies emerging on the plates was counted. For the MIC assay, the mixture of bLF and spores (2 × 10^5/mL) was incubated at 28 °C for 72 h in tryptic soy broth and the absorbance was measured at 600 nm to monitor bacterial growth. […]

Row | Molecule | IC50 [1] [nM] | Minimal inhibitory concentration (no growth observed at this concentration and above) ([1]; spores 2 × 10^5/mL) [µM] | Number of colonies after treatment, at 5 h ([2]; plated on starch agar after 5 h) | Number of colonies after treatment, at 48 h ([2]; plated on starch agar after 48 h)
1 | B1 | 138000 ± 7960 | – | – | –
2 | B2 | 458 ± 74 | 3.9 | sharp decrease in the number of colonies | only a few colonies remained
3 | B3 | 2180 ± 428 | – | – | –
4 | B4 | 2390 ± 203 | – | – | –

Source: PMC8880714, “Antimicrobial effect and mechanism of bovine lactoferrin against the potato common scab pathogen Streptomyces scabiei” (PLoS ONE, 2022)
